This note sets out measurements from the nanobody polyreactivity screen of Harvey et al. (2022).

The data set is described as follows: yeast display, Sf9 membrane polyspecificity reagent, FACS + sequencing; frameworks hold sequencing errors. The method in brief: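 Galactose-induced (36–48 hours) yeast carrying a synthetic nanobody display library were exposed to 10% biotinylated, detergent-solubilized Sf9 membrane reagent at 4 °C for 1 hour. FACS followed streptavidin microbead enrichment, using low and high (top ~1%) gates for expression (anti-HA) and reagent binding (streptavidin). Colony PCR, MiSeq 2 × 250 sequencing and CDR-length filtering followed. Labels for polyreactivity reflect the gate of origin.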
Regarding “QVQLVESGGGLVQAGGSLRLSCAASGSIFTRYAMGWYRQAPGKEREFVAAISRRGGRTYYADSVKGRFTISRDNAKNTVYLQMNSLKPEDTAVYYCAASEPPGYYIALFDYWGQGTQVTVSS”, the “polyreactivity (PSR sort gate)” value was “high polyreactivity”. Take “QVQLVESGGGLVQAGGSLRLSCAASGSIFTRYTMGWYSQAPGKERELVAVISDSSGRTYYADSVKGRFTISRDNAKNTVYLQMNSLKPEDTAVYYCAAEYSDIYEYWGQGTQVTVSS”: the “polyreactivity (PSR sort gate)” value is listed as “low polyreactivity”. In the case of “QVQLVESGGGLVQAGGSLRLSCAASGSIFTRYVMGWYRQAPGKERELVAAISGRGSSTYYADSVKGRFTISRDNAKNTVYLQMNSLKPEDTAVYYCAADRVRRPSPGGMDYWGQGTQVTVSS” it was “high polyreactivity”; in that of “QVQLVESGGGLVQAGGSLRLSCAASGSIFTSNAMGWYRQAPGKERELVAAISRRGSNTFYADSVKGRFTISRDNAKNTVYLQMNSLKPEDTAVYYCNTLVNAISYEYYYWGQGTQVNVSS”, “high polyreactivity”. In the case of “QVQLVESGGGLVQAGGSLRLSCAASGSIFTSNAMGWYRQAPGKERELVAAISYISGGTYYADSVKGRFTISRDNAKNTVYLQMNSLKPEDTAVYYCAAEQKWGSGQYDQGSYWYYYWGQGTQVTVSS” it was “low polyreactivity”; in that of “QVQLVESGGGLVQAGGSLRLSCAASGSIFTSNAMGWYRQAPGKERELVAAITSSSSTNYADSVKGRFTISRDNAKNTVYLQMNSLKPEDTAVYYCAKQGNNIPWYRPYGDYYYWGQGTLVTVSS”, “low polyreactivity”. With “QVQLVESGGGLVQAGGSLRLSCAASGSIFTSNDMGWYRQAPGKERELVAAITNSGGSTYYADSVKGRFTISGDNAKNTVYLQMNSLKPEDTEVYYCAAEISILPFVTPDTIYGYWGQGTQVTVSS” the entry was “low polyreactivity”; with “QVQLVESGGGLVQAGGSLRLSCAASGSIFTSYAMGWYIPAPGKERELVASISGSGGSTYYADSVKGRFTISRDYSMNTVYLQMNRLKPEVTEVYVCANRCYNGWLRRYYYWGQGTNVTVSS”, “high polyreactivity”. Take “QVQLVESGGGLVQAGGSLRLSCAASGSIFTSYAMGWYRQAPGKERELVAAISRRGSRTYYADSVKGRFTISRDNANNTVYLQMNSLKPEETAVYDCAAKSGGQPGDSWGQGTQVTVSS”: the “polyreactivity (PSR sort gate)” value is “high polyreactivity”. In the case of “QVQLVESGGGLVQAGGSLRLSCAASGSIFTSYAMGWYRQAPGKERELVAAITSTGGSTYYADSVKGRFTISRDPAKNTVYLLMNSLKPEDTAVYYCNADGGTPYDYWGQGTQVTVSS” it was “low polyreactivity”; in that of “QVQLVESGGGLVQAGGSLRLSCAASGSIFTSYTMGWYSQAPGKERELVAAIDSGGDSTYYADSVKGRFTISRDNAKNTVYLQMNSLKPEDTAVYYCAAEPQYWWQDYRYNYWGQGTQVTVSS”, “high polyreactivity”; in that of “QVQLVESGGGLVQAGGSLRLSCAASGSIFTTNAMGWYRQAPEKERELVATITWSDGSTYYADSVKGRFTISRDNAKNTVYLQMNSLKPEDTAVYYCATPYKRYFYKGGDYWGQGTQVSVSS”, “low polyreactivity”. Regarding “QVQLVESGGGLVQAGGSLRLSCAASGSIFTTYTMASYRQAPGKERELVAAISSSGVRTYYADSVKGRFTISRDNAKNTVYLQMNSLKPEDTAVYYCAARVGKYAEHRYNYWGQGTQVTVSS”, the “polyreactivity (PSR sort gate)” value is given as “high polyreactivity”. For “QVQLVESGGGLVQAGGSLRLSCAASGSIFTTYTMGWYRQAPGKERELVAAITTSSGSTYYADSVKGRFTISRDNAKNTVYLQMNSLKPEDTAVYSCNATYSAAVDYWGQGTQVTVSS”, the “polyreactivity (PSR sort gate)” value is “low polyreactivity”.

Turning to “QVQLVESGGGLVQAGGSLRLSCAASGSIFTVNAMGWYRQAPGKERELVARISWSGGSTYYADSVKGRFTISRDNAKNTVYLQMNSLKPEDTAVYYCAKGFYEGVPSYGYDYWGQGTQVTVSS”, the “polyreactivity (PSR sort gate)” value is given as “low polyreactivity”. With “QVQLVESGGGLVQAGGSLRLSCAASGSIFTVYVIGGYRQAPGKEREFVAAITYSGGRTDYADSVKGRFTISRDNAKNTVYLQMNSLKPEDTAVYYCAKVRDVLWRFNYWGQGTQVTVSS” the entry was “high polyreactivity”; with “QVQLVESGGGLVQAGGSLRLSCAASGSIFTWYAMGWYRLAPGIDRELVAAITRGGSTYADSVTGRFTISRDNAKNTVYLQMNSLKPEDTAVYYCNAVYGVYDFNYWGQGTQVTVSS”, “low polyreactivity”; with “QVQLVESGGGLVQAGGSLRLSCAASGSIFTWYAMGWYRQAPGKERELVAAITRGGSTYADSVKGRFTISRDNAKNTVYLQMNSLKPEDSAVYYCNAVYGVYDFTYWGPGTQVTVSS”, “low polyreactivity”. With “QVQLVESGGGLVQAGGSLRLSCAASGSIFTWYAMGWYRQAPGKETELVARINVSAGITYYADSVKGRFTISRDNAKNTVYLQMNSLKPEDTAVYYCAAEDFTRQFEYWGQGTQVTVSS” the entry was “low polyreactivity”. As to “QVQLVESGGGLVQAGGSLRLSCAASGSIFTYNAMGWYRKAPGKERELVAVISWSGGSTYYADSVKGRFTISRDNAKNTVYLQMNSLKPEDTAVYYCNSDYYRPYGNKYGYWGQGTQVTVSS”, the “polyreactivity (PSR sort gate)” value is listed as “high polyreactivity”. With “QVQLVESGGGLVQAGGSLRLSCAASGSIFTYNAMGWYRQAPGKERELVASISSGGITNYADSVKGRFTISRDNAKNTVYLQMNSLKPEDTAVYYCATEYLYVDFFIRYDYWGQGTQVTVSS” the entry was “low polyreactivity”; with “QVQLVESGGGLVQAGGSLRLSCAASGSIFTYNTMGWYRPAPGKERELVAAISSGGRTYYADSVKGRFTISRDNAKNTVYLQMTSLKPEDTAVYYCAARYYFWGQGTQVTVSS”, “high polyreactivity”. In the case of “QVQLVESGGGLVQAGGSLRLSCAASGSIFTYYAIGWYRQAPWKERELVAAISWSDGNTYYADSVKGRFTISRDNAKNTVYLQMNSLKPEDSAVYYCAAEYYVSRYWYPYDFYIMNYWGQGTQVTVSS” it was “high polyreactivity”.

For “QVQLVESGGGLVQAGGSLRLSCAASGSIFTYYAMGWYRQAPGKEREFVAAISRRGGSTYYADSVKGRFTISRDNAKNTVYLQMNSLKPEDTAVYYCAATYPYRGFYGIRSQFDYWGQGTQVTVSS”, the “polyreactivity (PSR sort gate)” value is on record as “high polyreactivity”. With “QVQLVESGGGLVQAGGSLRLSCAASGSIFTYYAMGWYRQAPGKERELVAAISLDGGSTYYADSVKGRFTISRDNAKNTVYLQMNSLKPEDTAVYYCAAYPTYPDEYWGQGTQVTVSS” the entry was “low polyreactivity”. “QVQLVESGGGLVQAGGSLRLSCAASGSIFTYYAMGWYRQAPGKERELVAAITRRGGSTYYADSVKGRFTISRDNAKNTVYLQMNSLKPEDTAVYYCNAFTYWASYWDYDYWGQGTQVTVSS”: the “polyreactivity (PSR sort gate)” value is “low polyreactivity”. In the case of “QVQLVESGGGLVQAGGSLRLSCAASGSIFTYYAMGWYRQAPGKERELVAGISGGGRTNYADSVKGRFTISRDNAKNTVYLQMNSLKPEDTAVFYCAADWSFSTIRYWRFDSDYWGQGTQVTVSS” it was “high polyreactivity”; in that of “QVQLVESGGGLVQAGGSLRLSCAASGSIFTYYAMGWYRQAPGKERELVASINWSGGRTYYADSVKGRFTISRDNAKNTVYLQMNSLKPEDTAVYYCNARSAYGTGNQRGRRYYWGQGTQVTVSS”, “high polyreactivity”; in that of “QVQLVESGGGLVQAGGSLRLSCAASGSIFTYYTMGWYRPAPGKERELVAAISNRGGSTYYADSVKGRFTISRDNSKITVYLQMNSLKPEDTAVYYCNKDVGVAVEMAYWGQGTQVTVSS”, “high polyreactivity”. In the case of “QVQLVESGGGLVQAGGSLRLSCAASGSIFTYYTMGWYRQAPGKERELVAAITVSGGRTFYADSVKGRFTISRDNAKNTVYLQMNSLKPEDTAVYYCAVKQVTLSPQYDYWGQGTQVTVSS” it was “low polyreactivity”; in that of “QVQLVESGGGLVQAGGSLRLSCAASGSIFVANPMGWYRQATGKERELVAVISSGGGSTSYADSVKGRFTISRDNAKNSVYLQMNSLKPEDTAVYYCNRRRYDAGSTMGYWGQGTQVTVSS”, “low polyreactivity”. In the case of “QVQLVESGGGLVQAGGSLRLSCAASGSIFVAYTMGWYRQAPGKERELVAAISRGGSTNYADSVKGRFTISRDNAKNTVDLQMNSLKPEDTAVYYCAAKVWDGQLLYYWGQGTQVTVSS”, the “polyreactivity (PSR sort gate)” value is on record as “low polyreactivity”.

“QVQLVESGGGLVQAGGSLRLSCAASGSIFVDNAMGWYRQAPGIERELVAVITLRSGSTNYADSVKGRFTISRDNAKNTVYLQMNSLKPEDTAVYYCAADDTYHDYQRDTDDDYWGQGTQVTVSS”: the “polyreactivity (PSR sort gate)” value is listed as “low polyreactivity”. With “QVQLVESGGGLVQAGGSLRLSCAASGSIFVDNAMGWYRQAPGKDRELVAVISWIGSSTYYADSVKGRFTISRDNAKNTDYFQMNSLKPEDTAVYYCAAAPSRTLLRQSKYYYWGQGTQVTVSS” the entry was “low polyreactivity”; with “QVQLVESGGGLVQAGGSLRLSCAASGSIFVDYAMGWSRPAPGKERELVVAISLSGGSTYYADSVKGRFTISRDNAKNTVYLQMNSLKPEDTAVYYCNAELIKGTYRWYEGGSQYGYWGHGTQVTVSS”, “low polyreactivity”. In the case of “QVQLVESGGGLVQAGGSLRLSCAASGSIFVDYAMGWYRPAPGNERELVADITSDGGSTDYADSVKGRFTISRDYAKNTVYLQMHSLNPEDTAVYDCAALKTQVLGVVEYGYDYWGQGTQVTVSS” it was “high polyreactivity”; in that of “QVQLVESGGGLVQAGGSLRLSCAASGSIFVDYAMGWYRQAPGKERELVAAITWRGDTTYYADSVKGRFTISRDNAKNTFYLQMNSLKPEDTAVYYCAAADPVGGEYWGQGTQVTVSS”, “low polyreactivity”; in that of “QVQLVESGGGLVQAGGSLRLSCAASGSIFVFNAMGWYRQAPGKERELVAAISNGDGTNYADSVKGRFTISRDNAKNTVYLQMNSLKPEETAVYYCAAVWTTLIVIEYDYWGQGTQVTVSS”, “low polyreactivity”. With “QVQLVESGGGLVQAGGSLRLSCAASGSIFVFYDMGWYRQAPGKERELVATISSGGGGTYYTDSVKGRFTISRDNAKNTVYLQMNSLKPEDTAVYYCAAEGDKYGKGDGYWGQGPQVTVSS” the entry was “low polyreactivity”. Consider “QVQLVESGGGLVQAGGSLRLSCAASGSIFVGFARGWYRQAPGKERELVAAISWSGDSTYYADSVKGRVTISRDNAKKTVYLQLNSLKPEDTAVYYCAVDYAEIGPRREVEYDYWGQGTQVTVSS”, for which the “polyreactivity (PSR sort gate)” value is “low polyreactivity”. With “QVQLVESGGGLVQAGGSLRLSCAASGSIFVGNAMGWYRQAPGKERELVAAINSGGSTYYADSVKGRFTISRDNAKNTVYLQMNSLKPEDTAVYYCAAEGTYSYYLYEYWGLGTQVTVSS” the entry was “low polyreactivity”.
